# Source: the DeepSol protein solubility set
# Assay: soluble on expression in E. coli; label from the status in PepcDB or PDB records
row,Sequence,soluble on expression in E. coli
1,MSLATVPTRSGSPRQLTTKQTGDAWEAQARRWLEGKGLRFIAANVNERGGEIDLIMREGRTTVFIEVRYRRSALYGGAAASVTRSKQHKLLQTARLWLARHNGSFDTVDCRFDVVAFTGNEVEWIKDAFNDHSEGHHHHHH,soluble
2,MSLAVNLTEKTAEQLPDIDGIALYTAQAGVKKPGHTDLTLIAVAAGSTVGAVFTTNRFCAAPVHIAKSHLFDEDGVRALVINTGNANAGTGAQGRIDALAVCAAAARQIGCKPNQVLPFSTGVILEPLPADKIIAALPKMQPAFWNEAARAIMTTDTVPKAASREGKVGDKHTVRATGIAKGSGMIHPNMATMLGFIATDAKVSQPVLQLMTQEIADETFNTITVDGDTSTNDSFVIIATGKNSQSEIDNIADPRYAQLKELLCSLALELAQAIVRDGEGATKFITVRVENAKTRDEARQAAYAVARSPLVKTAFFASDPNLGRLLAAIGYAGVADLDTDLVEMYLDDILVAEHGGRAASYTEAQGQAVMSKAEITVRIKLHRGQAAATVYTCDLSHGYVSINADYRSEGHHHHHH,soluble
3,MSLCAREPRVPADRLVAEMVPPPRFDSVRFGTYVPDPNQPSQSEAVRVLEDFAGGLGEAPGTGGGRRGFFGLGRGRAPKTPAGPRGVYLDGGYGVGKTHLLASLWHATPAEPSRKAFGTFVELTNLVGALGFQQTVQTLSGHRLLCIDEFELDDPGDTVLVSSLLARLVEAGVALAATSNTLPGKLGEGRFAAADFLREIQGLSAHFRALRIDGEDYRHRGLPEAPAPYSDEQVTRAARATEGASLDDFAALLDHLARVHPSRYGALTDGLTAVCLTGVHPVPDQSTALRLVVLADRLYDREVPVLASGLPFDRLFGEEMLKGGYRKKYFRAISRLTALARDAARLVDTAAAALEHHHHHH,not soluble
4,MSLCGIAGWVSFERDLSTQRAVAETMTKTMALRGPDDEGLWLDRRAALGHRRLSIIDLEGGRQPMTADEDGRTLACLVYTGEVYNFRELRLELQGLGHAFRTRSDTEVVLRAYLQWGEAMLERLNGMYAFALWDAREQRLLLVRDRMGVKPLYYYPMPDGVLFGSEPKAILAHPEAERRVTAGGLREMLDLVKTPEAAAFAGMHEVRPGQVVTIDRGGLRKRRYWQLEAREHTDDLPTTIRTVRELLDDIVERQIIADVPLCTLLSGGLDSSVVTALAARSMRRQGKGTVRSFSVDFVKHGAAFEADYLRGSPDAPFVRDLAAHAGTEHREILLESRELADPRLRAAVLGAQDLPPAYWGDMLPSLYKLFEAIRAQSTVALSGESADEVFGGYRWFHDAAAVDGDAFPWLAGSSGAFFDGQSLIAPGLLRELDMPGFRRDSYAQALAEVPRLASDSTRERRMREISHMHLTRFVQALLDRKDRMSMAVGLEVRVPFCDHRLVEYVFNAPWSMKNFDGREKSLLRAAGKDVLPESIVRRVKSPYPATQDPAYEQALRQGLARVLDDSRSPALPLLDKAAAWKLLDRPFGKTSTSPERAGLEMALGLDEWLRHHQVSLDLEGHHHHHH,not soluble
5,MSLCRWAAYHGTPIFLEDVISRPGHSLIAQSAHAEECKTATNGDGFGVAWYDARPEPGLYRDVYPAWSDPNLRAVAHHVRSGLFLSHVRASTGSCISRNNCHPFAARRWCFMHNGQVGGFEAFRKQADMAIADEFYTYRKGSTDSEVLFLLALSEGLEHDPHGALARAIARLEGLSRAHGTTPHMRLSAAFSDGQTLYAARYSSDHIAPSVYYRYSHARQGWAVVSEPLETDEGDWTELRPGRMLTIGAEGAAERDFAPADLGRAAEGHHHHHH,soluble
6,MSLDASQGGEQQSFSWDNATVYFAITDRFHDGNPSNNQSYGRPQEDAWGQNIGTFHGGDLQGLTDKLNEGYFTELGINAIWITAPYEQVHGWVGGGSDGDFAHYAYHGYYALDYTMIDQNMGTVEDMREFVHTAHEQGIRVVLDVVMNHPGYNTIKDMHEYGFGNPGVSEHWTPGQGQNWHDVHQQINYEDAGAWRHWWGPWIRAGIAGYESCGNSEITMCLAGLPDFRTELTHSVGLPPLLETKWNQERQGGYEDWIVPAANDLRRDLGVAPADYIVKWLSAWVEEFGIDGFRVDTAKHVELSRWQQLKDAANEALWKWREENPEAPGANWTDDFWMVGEVWGHGVGRSEYFDHGFDSVINFTFQGEHGNGPAYRLDTMESTFSRYANAINTDSTFNVLSYLSQHDTQLYPRERLIDGGTYLMLLPGGVQVFYGDETARPFGPTGSDPHQGTRSSMNWDSVNEEVLHHWQKMGQFRSNHLAVGAGEHRQIAASPYTFSRTYVEGDVDDRVVVVVGASGETTIDVSSVFSDGQQVRDFYTGNVTVVENGHVTFPAHRNGVILIERAGDEGHHHHHH,soluble
7,MSLDCFAPAVLGMPAFDRHATWQAMHATTHFIGRVGVAQVGLCAMNLALWDIQLKIEEVPLWRHLGPVKDRVKAYNTDGGWLTWTTAEVIDDMHHIINRGFDAVKMKLGRSDPMEDFQRVRAVRQAIGDDIKLMVDVNTVWDLETAIQWGKRLEELNVEWLEEPLHPFDVRSHAALAKAIRTPIAVGETVYTVYGFREYIAQEAAGVLQADVTKLSGIEEWLEVAAIGQTHGLQVIPHTNVQQNVHVQLAAATTNTPMIECCYESLFEIWENPVRVVDGFYTLPDVPGINGKLTETVLEKFRVSEGHHHHHH,soluble
8,MSLDDAKLTASKEAKRIVIQSIQRVATETAIENSVTVFHIESDEIKGRIIGREGRNIRALEAATGVEIVVDDTPEAIVLSAFDPVRREIARLALHQLVTDGRIHPARIEEVVSKVRKQVEEEIIETGKRTTIDLGIHGLHPELIRIIGKMKYRSSYGQNLLQHARETANLCAVMASELGLNPKKAKRAGLLHDIGKVPDEEPELPHALLGMKLAEKYKEKPDICNAIGAHHDETEMTSLLAPIVQVCDAISGARPGARREIVEAYIKRLNDLEQLAMAYPGVTKTYAIQAGRELRVIVGADKIDDKQTESLSGEIAKKIQDEMTYPGQVKITVIRETRAVSFAKEGHHHHHH,not soluble
9,MSLDDLQSIRESREIRIAMSGQYSPFSFANEQNQIVGFDASISEALAQRLGVKVSIVTTPFDGIIAGLLAKKYDAIIASMTITPERLRAVDFVGPYYHAGRTIVVKEDSPINSLADLKDVTVGVTLGDAHDKWARARGNLKVKTYKGLPEMLVDLEAGRLDALVMDSVPVLVAVKETGQKVRIITPPDSDGGVEGMGIALRKNNPELKAAMQQALNDMLADGSYEKISMKWIGKDIREGHHHHHH,soluble
10,MSLDETPTIHILWINAGLSCDGDSVALTAAMQPSIEEIVLGVLPGLPKIAVHWPLIDFECGPVGGSDTFIEWFFKGERGEIDPFVLVVEGSIPNESIKPEGYWCGFGDNPETGQPITTSEWIDRLAPKALAVVAIGTCATYGGIHAMAGNPTGAMGVPDYLGWDWKSQAGIPIVCVPGCPIQPDNFSETLTYLLYQAAGAAPMIPLDDKLRPTWLFGATVHEGCDRAGYYEQGQFALTYDSPKCLVKLGCWGPVVKCNVPKRGWMNGIGGCPNVGGICIACTMPGFPDKFMPFMDEPPGAKVSSSASGAYGAVVRKLRTLTARTVDKEPKWRHTGDRITTGYREGHHHHHH,not soluble
11,MSLDGGNSLFQLRKELYSTDNKLSSIDDDLSDRNTTEDLIMLPSSANSNFSSPYTSNNKYGNTKILTETEKYSVTKLSTDLSFLPGSNGNNNTIDTHHFEGLVDTALQKALVNDLDHIYIWNYNSIQKDTPICKISLHDDYSVLSSPPICLFTSSISSTNNDTANYNNNASGNINSGKFNNGICIINKKNSQFLYFEDISTINNLYTKLSKSKAHVLDLKLKDNENITSTINCEPSGIIIATSLGRVLFITIKDSTGKPKLELKQQLIKPQNSFFFRNLDSSKEIISLKKGPIVGKGERLLYITTRGGSLQIWQLSINSKSFKRLEINIYEHVLDSLQDLYPFAHGTLAFLDSHPIYSDTSSAHLTLASISNGNEIYYLMITVILDEKTNSFQIFSIYKLNTYFTKSTVDLNHKPQLFIPNALDSIVSPTLSVYVLFNNAVVMTQISSKLDSSFPLRRKWEDIIRFNKDVEIIGSGYSTDSIYVICKDMGVLKIASHSNNNQELELVSFVKSHIDQAVYFSTITSNEGHHHHHH,soluble
12,MSLDIHCHILPEIDDGPSSLEESLVMAREAVKEGITKIIATPHHLHPSYNNKAAVVKEKVRKLNEAIQKENIPLEILPGQEVRISGDVMDGLVSGDILTLADQGKYLFVEFSSNHVSRYADKLFFQLLSQDIIPIIVHPERNHEFLKNPGLLYDLVNGGALTQITTSSLTGHLGKKIKKFTEQIIEADLTHFLASDAHNVTERTFRIREAFALVEKNYGSSKAYEFQENAELLVENQHVMGPPPQPIVKKKLLGIFEGHHHHHH,soluble
13,MSLDIIIVGSGAGGLTTASNIKKHDKNAKVTVITSDNYIAYSPCAIPYVIGEEIADFESIIMHTPEDYKAKGIDVIVEAEVLDVVSDENKIIYKKDATETELKYDNLVLATGGTPFVPPIEGVTLGGVFKVRTIEDGRKITEWAKDTKNAVVAGAGAIGIEIAFGLKELGLDVTVVEMVPQVFPRALDPDMAETVQKYLEEQGIKVILEKPVGKIIGNDKVESVLVGEETIPAEMVIMSTGVRSNIELAKRAGCEIGRWAVLTNEKMQTSIPNIYAVGDCVEVIDAITMQNTLSPFGTTAVRQGKVAAKTIANIEAEIKPVLNSMVSKIGKLEIGGTGMTETAAKMNGIEIVLGYSKALTRARYYPGGKPIYIKMVADKNTKKIIGCQIISEERVAERVDAMSVAIFNGMTVEELANQEFCYAPPVSMVIDPIVFAAEDTLDKEGHHHHHH,soluble
14,MSLDNKRIEELKEVLKSLNKIGITEELRKEALDIVKNINPIELSIAEQQLIEEGMNPQDLRHLCDIHMEVLKDELTKVKASTSKGHVLYTLIEEHDKILDFLKELEEVNSNIQKTENYDEAKDETHRLYNLAESILDAENHHQREEKVLFLEMEKREITGPTRIMKMEHDDLRAKKKELKMLSKSVDTMDFREFKSKVDEVSKYIIFNLRDHIFKENYILYPSALEAIKDKDMWDDMKRRCDEVGYCSFTFSNEGHHHHHH,soluble
15,MSLDNRFPVCINTMKLTMPKLEVYYPSIGGISDINVQKKMNNTILNLVYQMIEDQGYYKNTETTITGYFEIKNNQRGILSLTLSNYAFSGGAHGMTIMKSLTFNVETGEEYSLSQLFKPGSNYVKVLSELIKVQIRERDIPVIEEFCAIKPNQDFYIADKILVLYFQLYELVPYAYGFPQFPISVYTIQDIINEDGPLGRMLYEGHHHHHH,soluble
16,MSLDQPLTFYGLKSMSGAFASYGKYADMGSRLAIAEHPQLLGHPLKYKVIDTEGNAGKAVRKVQEAIGQDGARFFQGCTLSSSALAVSKEIHKAGGVFMTPVGADEITGKDCNASTFRWSVPTYGAIRETLVPMSRQLPQAKRWYTITPQYVFGDALLDNARKVFAELGVEHIGNSYHSLQEQEFSGYLTNAIAAKPDVLVLLNFGSQASNALRQAVNFGIKDRMKVLMVWSAGLDQFQELGSDVLEGVYLGAQYWHQVDTPLNKLLVAATRKAYGINPNYPLAADYIGTKVMLEAIVKAGSLDGAAVSAALQGMRFQGPTGEELIRPGDHQVLKDYYLLRGKPQGQMRDEDDLAEVISSGRSFVEVDHTGCALAEGHHHHHH,soluble
17,MSLDRVEVLGVEFVEFTADQTEAEALGSLLGAMGFRAVASHREKAVTLWRQGCDHRGINVVINTEQKGFAHSSYLVHGASAYAIGLKVPDASAAVERARALGAEIFLPESGEGEGAMAAIRGMGGGLIYFVDEIDDVWSREFVAPGDDRQPAATLVAIDHVAQSMKEEQLPSWLLFYTSILDADKLAQVDIVDPAGLVRSQVVENASGTLRLTLNGADNHREGHHHHHH,not soluble
